Results as given in patent publication US20240199762A1 (PHILOGEN S P A, published 2024).

Molecular target: T1, porcine FAP (pFAP) extracellular domain (ECD) (pig, UniProt A5D7B7 39-760 (bovine entry))
T1 construct: also called pFAP-ECD
T1 chain: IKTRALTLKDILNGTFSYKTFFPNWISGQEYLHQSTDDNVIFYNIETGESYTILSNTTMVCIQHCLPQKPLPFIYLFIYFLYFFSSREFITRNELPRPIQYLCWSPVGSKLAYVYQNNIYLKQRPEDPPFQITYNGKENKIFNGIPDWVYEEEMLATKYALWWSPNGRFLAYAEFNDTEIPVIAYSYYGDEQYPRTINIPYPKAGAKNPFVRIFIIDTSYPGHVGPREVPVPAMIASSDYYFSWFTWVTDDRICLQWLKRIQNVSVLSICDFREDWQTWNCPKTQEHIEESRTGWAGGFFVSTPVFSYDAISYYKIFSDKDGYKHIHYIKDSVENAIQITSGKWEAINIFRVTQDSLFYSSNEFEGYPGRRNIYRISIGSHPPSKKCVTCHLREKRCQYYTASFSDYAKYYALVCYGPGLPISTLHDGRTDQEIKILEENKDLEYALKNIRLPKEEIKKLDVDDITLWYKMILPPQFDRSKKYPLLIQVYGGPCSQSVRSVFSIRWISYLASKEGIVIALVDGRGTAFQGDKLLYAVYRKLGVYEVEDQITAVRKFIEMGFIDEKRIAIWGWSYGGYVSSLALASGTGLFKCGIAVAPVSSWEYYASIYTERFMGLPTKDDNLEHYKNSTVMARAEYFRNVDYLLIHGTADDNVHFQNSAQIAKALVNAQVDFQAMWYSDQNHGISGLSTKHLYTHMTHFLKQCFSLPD
Assay: ELISA, 120 nM pFAP-ECD coated on Maxisorp plates
Protocol: Cross-reactivity of the anti-hFAP antibodies with oFAP-ECD and pFAP-ECD was tested using ELISA. 120 nM of oFAP-ECD or pFAP-ECD was coated on Maxisorp plates overnight at 4° C. […] Specifically, the C5 antibody was employed in IgG2a format, while all other antibodies, including the 7NP2 antibody, were in IgG1 format. The differences between the IgG2a and IgG1 formats are not expected to affect binding to FAP. After 3 washes with PBS, binding of the antibodies to oFAP-ECD and pFAP-ECD was detected using an anti-human or anti-murine antibody HRP conjugate.

B1: anti-hen egg lysozyme antibody KSF in IgG1 format (antibody, V domains shown)
VH: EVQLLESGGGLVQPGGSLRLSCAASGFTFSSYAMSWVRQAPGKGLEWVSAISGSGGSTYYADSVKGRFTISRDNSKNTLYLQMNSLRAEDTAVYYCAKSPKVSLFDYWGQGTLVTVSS
VL: SSELTQDPAVSVALGQTVRITCQGDSLRSYYASWYQQKPGQAPVLVIYGKNNRPSGIPDRFSGSSSGNTASLTITGAQAEDEADYYCQSSPLNRLAVVFGGGTKLTVLG
notes: Negative control; It was conjugated to FITC in the immunofluorescence and ex vivo experiments; also called KSF IgG1; KSF(IgG1)
**Q.** Does B1 bind?
**A.** Result: no binding (tested: 5 µg/mL)
